{"source": "patent US20150078996A1", "about": "(Merck Sharp & Dohme, published 2015)", "molecules": {"B1": {"name": "mouse monoclonal antibody 12B1 (anti-IGF-1R) (antibody, mouse IgG1, V domains shown)", "VH": "QVQLKESGPDLVAPSQSLSITCTVSGFSLTNYGVHWVRQFPGKGLEWLGVIWAGGNTNYNSALMSRLTISKDNSKSQVFLKMNSLQTDDTAVYYCAREYGSTYVAWFAHWGQGTLVTVSS", "VL": "ENVLTQSPAIMSASPGEKVTMTCGASSSVSSSFLHWYQQKSGASPKLWIYSTSNLASGVPTRFSGSGSGTSYSLTISSVEAEDAATYYCQQYSGYPLTFGAGTKLELK", "notes": "also called MAb 12B1; clone 12B1"}, "B2": {"name": "monoclonal antibody 2D10 (antibody, V domains shown)", "VH": "EVNLVESGGILVKPGGSLRLSCAASGFTFSNYAMSWVRQTPEKRLEWVASIGSAGYIHYPDSVKGRFTISRDNARNILYLQMSSLRSEDTAMYYCAREGGLVWFAYWGQGTLVTVSA", "VL": "ETTVTQSPASLSVATGEKVTIRCITSTDIDDDMNWYQQKPGEPPKLLISEGNTLRPGVPSRFSSSGYGTDFVLTIENTLSEDVADYYCLQSDKMPLTFGAGTKLELK"}, "B3": {"name": "mouse monoclonal antibody 7C10 (anti-IGF-1R) (antibody, from another filing, V domains shown)", "VH": "DVQLQESGPGLVKPSQSLSLTCSVTGYSITGGYLWNWIRQFPGNKLEWMGYISYDGTNNYKPSLKDRISITRDTSKNQFFLKLNSVTNEDTATYYCARYGRVFFDYWGQGTTLTVSS", "VL": "DVLMTQIPLSLPVSLGDQASISCRSSQSIVHSNGNTYLQWYLQKPGQSPKLLIYKVSNRLYGVPDRFSGSGSGTDFTLKISSVEAEDLGVYYCFQGSHVPWTFGGGTKLEIK"}, "B4": {"name": "monoclonal antibody 12D5 (antibody, V domains shown)", "VH": "QVQLKESGPGLVAPSQSLSITCTVSGFSLNEYGVSWIRQPPGKGLEWLGVIWGGRDTYYHSPLKSRLSITKDNSKSQVFLKMNSLQTDDTAMYYCAKHEGMDYWGQGTSVTVSS", "VL": "DIVMTQSQKFMSTSVGDRVSVTCKASQNVVTNVAWYQHKPGHSPKPLIYSASYRYSGVPDRFTGSGSGTDFTLTINNVQSEDLAEYFCHQYNNFPLTFGAGTKLELK"}}, "key": {"[1]": {"biological_target": "IR (insulin receptor) expressed on baculovirus-infected Sf9 insect cells (UniProt P06213)", "experiment": "flow cytometry on Sf9 cells expressing IR, secondary antibody alone"}, "[2]": {"biological_target": "IGF-IR expressed on baculovirus-infected Sf9 insect cells (UniProt P08069)", "experiment": "flow cytometry on Sf9 cells expressing IGF-IR, secondary antibody alone"}, "[3]": {"biological_target": "IR (insulin receptor) expressed on baculovirus-infected Sf9 insect cells (UniProt P06213)", "experiment": "flow cytometry on Sf9 cells expressing IR"}, "[4]": {"biological_target": "IGF-IR expressed on baculovirus-infected Sf9 insect cells (UniProt P08069)", "experiment": "flow cytometry on Sf9 cells expressing IGF-IR"}, "[5]": {"biological_target": "T1, IR (insulin receptor) expressed on baculovirus-infected Sf9 insect cells (UniProt P06213 28-1382, limits assumed)", "T1 construct": "whole, on cells; also called IR + cells", "experiment": "flow cytometry on Sf9 cells expressing IR", "excerpt": "At this stage of the selection process, only hybridomas secreting monoclonal antibodies that recognized both the recombinant and the native receptors were selected, cloned, produced and then purified before being tested by FACScan analysis, according to the method described above, on Sf9 insect cells expressing either IGF-IR or IR in order to eliminate hybridomas recognizing both the two receptors."}, "[6]": {"biological_target": "T1, IR (insulin receptor) expressed on …", "experiment": "flow cytometry on Sf9 cells expressing IR", "remark": "listed apart in the source"}, "[7]": {"biological_target": "T2, IGF-IR expressed on baculovirus-infected Sf9 insect cells (UniProt P08069 31-1367, limits assumed)", "T2 construct": "whole, on cells; also called IGF-1R + cells", "experiment": "flow cytometry on Sf9 cells expressing IGF-IR"}, "[8]": {"biological_target": "T3, recombinant human insulin receptor (IR) extracellular domains (R&D Systems) (human, UniProt P06213-2 28-944, limits assumed)", "T3 construct": "extracellular domain; also called IR ECD", "experiment": "western blot after SDS-PAGE, 12B1 as probe", "procedure": "Proteins were analyzed by SDS-PAGE electrophoresis on Criterion 7% homogeneous polyacrylamide gels (BioRad, Marnes la Coquette, France) under reducing and non-reducing conditions. Equivalent quantities of 4, 20 and 100 ng were loaded for pure recombinant IR and IGF-1R ECD whereas higher protein quantities, from 0.2 to 6 μg, were needed for membrane extracts to detect IGF-1R by western blot. Proteins were transferred onto nitrocellulose membrane. […] Proteins were further detected by chemiluminescence (ECL, Amersham Biosciences, Orsay, France) after incubation with a horseradish peroxidase-conjugated anti-mouse IgG polyclonal antibody (Amersham Biosciences, 1:3,000 dilution) for 1 h at room temperature and extensive washes."}, "[9]": {"biological_target": "recombinant human IGF-1R extracellular domains (R&D Systems) (human) (UniProt P08069)", "experiment": "SPR Biacore X, 5 min injection of 7.4 µg/ml over 439 RU of amine-coupled soluble IGF-1R"}, "[10]": {"biological_target": "full length hIGF-1R from membrane extracts of NIH 3T3 cells overexpressing IGF-1R (human) (UniProt P08069)", "experiment": "displacement of 125I-IGF-1 from hIGF-1R captured on FlashPlate"}, "[11]": {"biological_target": "recombinant human IGF-1R extracellular domains (R&D Systems) (human) (UniProt P08069)", "experiment": "SPR Biacore X, 5 min injection of 8.24 µg/ml over 439 RU of amine-coupled soluble IGF-1R"}}}
{"molecule": "secondary anti-species antibody coupled to a fluorochrome (Anti-Mouse FITC)", "values": [{"measurement": "MFI", "setting": "[1]", "value": 13}, {"measurement": "MFI", "setting": "[2]", "value": 9}]}
{"molecule": "commercially available anti-IGF-1R antibody αIR3", "values": [{"measurement": "MFI", "setting": "[3]", "value": 32}, {"measurement": "MFI", "setting": "[4]", "value": 35}]}
{"molecule": "B1", "values": [{"measurement": "binding result", "setting": "[5]", "value": "no binding"}, {"measurement": "MFI", "setting": "[6]", "value": 10.5}, {"measurement": "MFI", "setting": "[7]", "value": 54}, {"measurement": "binding result", "setting": "[8]", "value": "no binding (tested: 100 ng per lane)"}, {"measurement": "response (RU)", "setting": "[9]", "value": 146, "unit": "RU"}]}
{"molecule": "B2", "values": [{"measurement": "MFI", "setting": "[6]", "value": 10.6}, {"measurement": "MFI", "setting": "[7]", "value": 42.5}]}
{"molecule": "B3", "values": [{"measurement": "IC50", "setting": "[10]", "value": 0.2, "unit": "nM"}, {"measurement": "response (RU)", "setting": "[11]", "value": 180, "unit": "RU"}]}
{"molecule": "B4", "values": [{"measurement": "MFI", "setting": "[6]", "value": 10.6}, {"measurement": "MFI", "setting": "[7]", "value": 50}]}
